This note sets out measurements from patent US20040091908A1.

The assay concerns the target potassium channel Kv4.3 T1 domain (tetramerization domain, residues 29-143, with N-terminal Met, C-terminal Leu-Glu and six His-tag). The experiment in a line: X-ray crystal structure of the T1 tetramer.

On to “potassium channel Kv4.3 T1 domain (tetramerization domain, residues 29-143, with N-terminal Met, C-terminal Leu-Glu and six His-tag)”, for which the solvent-accessible surface area buried by each subunit at its two subunit interfaces came to 960 Å^2.
